Experiment [1] deals with Recombinant FGFR-1(IIIc) (UniProt P11362). In words: BiaCore 3000 biosensor, binding kinetics.
Experiment [2] shares this target. In words: kinetic analysis (BiaCore). (In general: SPR reads the build-up and loss of mass on a sensor chip optically.)
For experiment [3], the target named is FGFR-1(IIIc) on transfected L6 cells (UniProt P11362). Nature of the experiment: cell-based blocking assay: 125I-FGF-2 (15 ng/ml) binding to FGFR-1(IIIc)-expressing L6 cells.
Experiment [4] deals with Recombinant FGFR-1(IIIc) (UniProt P11362). Nature of the experiment: ELISA blocking assay: FGFR-1(IIIc) binding to immobilised FGF-2.
Experiment [5] has the same target. In words: ELISA blocking assay: FGFR-1(IIIc) binding to immobilised FGF-1.
Experiment [6] shares this target. Nature of the experiment: ELISA blocking assay: FGFR-1(IIIc) binding to FGF-1.
The target is the same in experiment [7]. In words: ELISA blocking assay: FGFR-1(IIIc) binding to FGF-2. For orientation: ELISA stands for enzyme-linked immunosorbent assay.

Results on two molecules are retold here after patent US20070274981A1.

Where only a bound is given, the exact number is not on record here.

B1: FR1-H7 (antibody, V domains shown)
VH: EVQLVQSGAEVKKPGASVKVSCKVSGYTFTDYYMHWVQQAPGKGLEWMGLVDPEDGETIYAEKFQGRVTITADTSTDTAYMELSSLRSEDTAVYYCARDDYMDVWGKGTLVTVSS
VL: ETTLTQSPDTLSLSPGEGATLSCRASQSVSGSALAWYQQKPGQAPRLLIYDASSRATGVPDRFSGSGSGADFSLTISRLEPEDFAVYSCQQYGSSPLTFGPGTKVDVKR
Consider B1, for which the Kd (as a rule, the equilibrium constant for the complex coming apart) in experiment [1] came out at 0.04 nM; in experiment [2], 0.05 nM. Also, the IC50 (commonly the concentration that gives 50% inhibition) in experiment [3] is less than 5 nM; in experiment [4] it was 2 to 5 nM; in experiment [5], 5 nM.

B2: FR1-A1 (antibody, V domains shown)
VH: QVQLVQSGAEVKKPGSSVKVSCKASGQTFTGYYMHWVRQAPGQGLEWMGRIIPILGIANYAQKFQGRVTITADKSTSTAYMELSSLRSEDTAVYYCARGGDLGGMDVWGQG
VL: EIVLTQSPLSLPVTPGEPASISCRSSQSLRHSNGYNYLDWYLQKPGQSPQLLIYLASNRASGVPDRFSGSGSGTDFTLKISRVEAEDVGVYYCMQALQIPPTFGPGTKVDIKR
Consider B2, for which the IC50 in experiment [6] amounted to 5 nM; in experiment [7], 10 nM. Further, the Kd in experiment [2] was 0.7 nM.
